Results as given in patent US9750823B2, “Use of a truncated CCN1 promoter for cancer diagnostics, therapeutics and theranostics” (priority 2013, dated 2017).

B1: tCCN1-Prom: truncated CCN1 cancer selective promoter, SEQ ID NO: 1; tested in reporter plasmid pGL3.CCN1-luc (pCCN1-luc) (nucleic acid)
DNA: TCCAAAAACAAACAAGTACAACATACCCAAAAGAGGGAAGGGCTGGAGGAGTGGGGGAGACCTCTGCCTGGGAATTTGCCAGACGATGGGCAAGTTTCCCCCCGCCCCACCCCCCCCCCCGCCTTTTCATTCATAAATGCCACTGTGGGTATTAATTTGCAATTCACTGAACTTTGCTAATAAACATCATGCCAAAGCTTTGGGACTTGTTCCGAACACGCCTCTTTGAAGTCCACAAATATTCCTGACTCAGAGACACACTCCTCTTCCCCGTTCTACTCTTTCAACAGATAACTTGCCTCTCACCTTCGCTGTAAAAAAGCAAACAGCTCACTGCCTTCCCGGGTGAGGGCTTCAGTGGCTGCCCGGTCAACTCGCATCACCAAACAAAACGACTTTTGTTCCTCCCTCTCAGGTCCTCCCACCCACCCAGTCCAGGCAAAGTTCTGAACTGGCCCCCTCGCCCCTCACGACCCTCCAACTACCATCACCACCATCACGCCCCAAAGAACCCTTCCCAACATAAGTCGTAATTTAAGGTGGAAAAAACGAACTGTTTTCTTGACGGGTCTGGGACACACACACACACACACACACACACACACACCGAACTGTTTTCTTGACGGGTCTGGGAGACACACACACACACACACACACACACACACACACACACACACACACAAAGGTGCAATGGGGCCAGGGGAGGCGCTTGGCAGCAGCCCGCGCCAACCAGCATTCCTGAGATGTTTGAGAATTCTGGAACGCGCAGACAGAGCCGACGTCACTGCAACACGCGGCGCCTCCGCCGGCCCGTATAAAAGGCGGGCTCCGGGGCGCC
modifications: Synthetic promoter

What was measured:
[1] = system: src-, raf-, ras- and HPV-transformed CREF cells; experiment: Luciferase reporter assay of p-CCN1-luc and/or TPA in transformed CREF cells; format: cell-based, rat; settings: for effect on expression of the tCCN1-Prom: TPA 200 ng/ml
Description: FIGS. 1A and B. tCCN1 promoter activity in Prostate cancer (PC) and cloned rat embryo fibroblast (CREF) series of cell lines. […] B. src-, raf-, ras- and HPV-transformed CREF cells were treated with p-CCN1-luc and/or TPA (200 ng/ml).

[2] = system: prostate cancer cells lines DU-145, PC-3, ARCaP, ARCaP-E, ARCaP-M and normal human prostate epithelial cell lines RWPE-1 and P69; experiment: Dual-luciferase reporter assay of promoter activity (pCCN1-luc vs pPEG-luc); format: cell-based; settings: pGL3-luc reporter, normalized with pRL-TK
Description: FIGS. 1A and B. tCCN1 promoter activity in Prostate cancer (PC) and cloned rat embryo fibroblast (CREF) series of cell lines. A. Prostate cancer DU-145, PC-3, ARCaP, ARCaP-E, and ARCaP-M cells and normal RWPE-1 and P69 cells were transfected with pGL3-luc reporter vector driven by PEG-Prom (pPEG-luc) or tCCN1-Prom (pCCN1-luc). pRL-TK (Renilla luciferase) was co-transfected for the normalization of luciferase activity, and the luminescence readings were plotted as relative luminescence units (RLU). *(p<0.05), **(p<0.01) and ***(p<0.001) indicates the statistical significance by using t-test between pPEG-luc and pCCN1-luc transfected cells. B. src-, raf-, ras- and HPV-transformed CREF cells were treated with p-CCN1-luc and/or TPA (200 ng/ml). The results were recorded as RLU. *(p<0.05) and **(p<0.01) indicates the statistical significance between pCCN1-luc and pCCN1-luc plus TPA treated cells.
Prostate cancer cells were plated at seeding density of 30,000 cells/well in quadruplicate in 24-well cell culture plate. After 24 h, cells were transfected with either pGL3.PEG-luc or pGL3.CCN1-hie using Fugene® HD transfection reagent (Promega, Madison, Wis., USA). […] Cells were lysed after 48 h of post transfection and luminescence was studied using Dual-luciferase Reporter® Assay system (Promega) with luminometer. […]

[3] = system: breast, brain (including Glioblastoma multiforme, GBM) and melanoma; experiment: tCCN1-Prom expression in additional human cancers vs normal counterparts (data not shown); format: cell-based

Molecule	effect on expression of the tCCN1-Prom [1]	tCCN1-Prom activity in transformed CREF cells ([1]; src-, raf-, ras- and HPV-transformed CREF cells)	tCCN1-Prom activity compared with PEG-Prom (relative luminescence units) [2]	tCCN1-Prom expression in additional human cancers vs normal counterparts [3]
CCCCCCCCCCCCCC(=O)O[C@@H]1[C@@H](C)[C@@]2(O)[C@@H](C=C(CO)C[C@]3(O)C(=O)C(C)=C[C@@H]23)[C@@H]2C(C)(C)[C@]12OC(C)=O [TPA]	increased the expression of the tCCN1-Prom	–	–	–
Nc1ncnc2c1ncn2[C@@H]1O[C@@H]2COP(=O)(O)O[C@H]2[C@H]1O [cyclic adenosine mono-phosphate (AMP), cyclic adenosine mono-phosphate]	increased the expression of the tCCN1-Prom	–	–	–
B1	–	elevated as a function of transformation of CREF cells by diverse acting oncogenes	more active than the PEG-Prom in prostate cancer cells as compared to normal counterparts RWPE-1 and P69	elevated expression in additional human cancers vs. normal immortal or primary normal counterparts
